Assay results published in the supplement of paper PMC12042874.
± gives the uncertainty stated by the source.

Experiment: amyloid nucleation score (Sup35N fusion, yeast selection) (log enrichment); library NNK3; higher = more nucleation; inactive = no reads after selection
Outline: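 The nucleation score is the DiMSum log enrichment of output over input reads, centred on the mode score of non-aggregating sequences. Only sequences with 100 or more input reads were scored, using Illumina sequencing of input and output plasmid inserts. Psi-negative yeast expressing Sup35N fused to peptides of 20 random codons were induced 24 hours with 100 μM copper sulfate and grown 7 days at 30°C on medium lacking adenine and uracil.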

Substance	amyloid nucleation score
YAFISDYQYGILFYIKWYFG	inactive
YAGFTQNDNVKLYTGNPFHM	inactive
YAKFCVSASYGVCQKLHGQF	0.331 ± 0.37
YASYGSKGGITTLRRIISGS	inactive
YCDSCLNDFLVWYF	inactive
YCDSVWNQNSTYHISL	inactive
YCETSLLCCCSIPWYLNCIE	inactive
YCFVPRIMYMVCQYCVLTND	inactive
YCGNLYRDFLGQQPF	inactive
YCVWFPSVCFIRRYVSIRLI	inactive
YCVWLVSKTISWFQTVFI	inactive
YDCVIYSVAECLYVTSSFIE	0.253 ± 0.18
YDFYTIVNIRTLHPRLIFFM	-0.195 ± 0.9
YDGCDS	inactive
YDGVNKLRSVCCVESSDFGL	inactive
YDIMVVWWFFVCSRSV	inactive
YDMTRHLYVSSPEIVKPY	inactive
YDRAKSQRIRAQPESTSSVL	0.593 ± 0.19
YDYYFFNSFNISDIMR	inactive
YEDAAILDVCDPQIELLLHQ	inactive
YEKYDTKVWNCG	inactive
YELGIHWTYCWL	2.39 ± 0.064
YEMMCQYVYECWYIIDARRM	0.06 ± 0.23

Substance	amyloid nucleation score
YFCFVLFYLN	2.04 ± 0.07
YFDCNFVW	0.997 ± 0.14
YFEVDNLRRIQRRLICLGPE	0.891 ± 0.27
YFFIPVKW	inactive
YFFSVAISKVYDFSVKSRCT	1.98 ± 0.086
YFGNSGWDHGWPVVHKMSFS	inactive
YFGVTLLMYERARWASFYRF	inactive
YFHGFLFYSE	inactive
YFIVSWFFQNCFR	1.19 ± 0.12
YFLFNTYWDRALQSKTVGGL	inactive
YFLGECNPRCYLLRGLAAWN	inactive
YFLLYTVNGGTASTLNYV	2.15 ± 0.093
YFLQTEAEVSFEQEVVAISL	inactive
YFMVEVMLILMSDGAFYTFC	inactive
YFNGATS	inactive
YFNRNQYVDDTCG	inactive
YFPSYYVADFSSHLLMGQVY	inactive
YFQGWSMVCSDVSTGKSVVM	inactive
YFRFFTFSNCRDYKDTYPTL	0.972 ± 0.23
YFSAIFFDSLYMLYGSNRAV	0.356 ± 0.24
YFSSLNSNFWGVVRRRLLYN	inactive
YFSYLCGVRYLYCFKLCSSM	inactive
YFTQNSSYVGV	inactive

Substance	amyloid nucleation score
YFYIPGH	inactive
YGAMSAGDMETY	inactive
YGCGIQGLVQWTCDTGRMHC	inactive
YGCRRDIFKYSMTLLMDAID	inactive
YGEAAYRDRS	inactive
YGFRMRRLVARLESRQWFWG	inactive
YGFRVCYPQASMSTVVEHSR	inactive
YGGDSNRIRVRLFKMKTLNL	inactive
YGKFMLLPVAGGIFVFENML	1.25 ± 0.14
YGNEFEDNPSMATTTDQRAR	0.468 ± 0.22
YGSIV	inactive
YGVLS	inactive
YHAYRTGE	inactive
YHDFLYIEGWQMSETNSFEC	inactive
YHLSQAYDMKVYILNRCGLF	0.506 ± 0.38
YHLYDETMCMP	inactive
YHPYRWLHESRL	inactive
YHSLYTAPDEGLFYRNRRKF	inactive
YHSSVCTDVIYGTTYWGCAV	inactive
YHWSS	inactive
YICLYHLLVWWDRQFRGFNS	inactive
YICNY	inactive
YIFVSRIIGVPFRLVQVTSG	inactive

Substance	amyloid nucleation score
YIGVYYLN	0.431 ± 0.28
YIIFNFIDFYKPGWGFQWTV	2.82 ± 0.052
YIMAFCCLLPNPPVSVLMAH	inactive
YIRELARPTLSRIKRLAPIS	inactive
YIRLCSVFGTTWYARLDG	0.459 ± 0.27
YISNMLTLSPAKVSHKSWVI	0.186 ± 0.29
YISYLDMDCEFVLS	inactive
YITDYNQVSAHTQNKKTMGY	inactive
YIVLKYSEMRTRVTDYRTTG	inactive
YIWTMWSSSLCVLMGAKGAA	inactive
YKEMVHRSG	inactive
YKEMVRRNLSRANKFDCGSM	inactive
YKGYSVCIVLPFG	-0.542 ± 0.98
YKLNMLLGYLLMFTLGIHAV	inactive
YKSLIVNANYCDLGFLRGWC	2.6 ± 0.064
YKSVYMRF	0.709 ± 0.18
YLCTGQAGCAYMPRS	inactive
YLEKAL	inactive
YLFRNLRGRAIFVNKIIGQR	inactive
YLHVVTWLMNACPGQPRHWL	inactive
YLICTRPILSLASLVS	inactive
YLKMLSVLKWRKNISRFVLP	inactive
YLKVADVSLHLSHDLTYLLM	inactive

Substance	amyloid nucleation score
YLLCGYRGATFRKHEVWGEG	-0.059 ± 0.78
YLLDKYEVAFIPSHLVLHSP	inactive
YLLRHILSIWKGWDWGTSQ	inactive
YLLSIEYVNLAIVDNSWRMF	1.04 ± 0.094
YLMFGTTNMAVLIRFEHH	inactive
YLMIIDRPKSHNLPYLGMLH	inactive
YLPRSW	inactive
YLQLTRQTSYVIIAL	inactive
YLSINHRTTSFYWYDFAGFP	0.537 ± 0.17
YLSVIKNTIPEMWIIVGVCR	inactive
YLSVVRGPMNRCSYYKVMTE	inactive
YLTCDKTNVNGFMI	inactive
YLTGTMSVEFRPHGMPNLSK	1.82 ± 0.08
YLTSFRFYVFTFR	inactive
YLVMTSLIC	inactive
YLVRLVSDITRKNR	2.37 ± 0.071
YLWRQYYALFCYCFWNLKGP	inactive
YLYMG	inactive
YLYNRSMRVPLMSRKLFGGD	inactive
YLYRFLPVQTRPLMHATSYI	inactive
YMGCMTVW	inactive
YMGEVCCIVVVTDHLCTVVI	inactive
YMLIKYGSL	0.449 ± 0.35

Substance	amyloid nucleation score
YMRDVDFIRSEGG	inactive
YMYQLKYYASEMNWVYSYSI	inactive
YNCFDDNTYPYSANGSRNSL	inactive
YNDNSNCSARMGLI	inactive
YNFGLVNV	inactive
YNRFLVVSGMGMSFYGKQYM	1.51 ± 0.074
YNRLIMSSELSMIGTTCISY	inactive
YNTRGQSSFSPCEIMWLVHI	inactive
YPDNIFFCQSN	inactive
YPLDTVGFWEESKLFVGRGG	inactive
YPNIERFTETWISYVDQNRG	-0.083 ± 0.58
YPPTGMIWIRILVSV	inactive
YPRTSFRFKGCDKEVVSDLL	inactive
YPSGVYKFFAASATCWIM	inactive
YPYCKKGWCDMKTKGRSKEG	inactive
YQESKYIS	inactive
YQGAFS	0.341 ± 0.83
YQQSIVHVRRFTYRRAPVVA	-0.46 ± 1.9
YRAYYSYSFRW	inactive
YRCYVVVSCWIHLNIKWLMY	inactive
YRFRRDNLWCTWSSYMYMYC	inactive
YRLCLDSCIKIYLQGWVYVY	inactive
YRLPMILKFLNWGFSYLVPF	inactive

Substance	amyloid nucleation score
YRLRSICSFLGVVSYG	inactive
YRNRTVFALSGLSQGDLPEV	inactive
YRPGW	inactive
YRPYC	inactive
YRRELAKSHLYMSIWRNRLP	inactive
YRRKVELIRSLRW	inactive
YRRYPVIR	inactive
YRSRLYNCFFGQFYMSLTNM	2.07 ± 0.064
YRVWTVYRVYILAGTKNIRS	inactive
YRWGRVYPSAFSLCKLRYKL	inactive
YSAAEDVKWVLGFCYAGFNS	inactive
YSAQFITSIGLGQKLFS	inactive
YSCAKRTRVGTRSSRKVSLA	inactive
YSCTFYTLCPENI	1.85 ± 0.07
YSCVVL	inactive
YSDWDIYWIFMFGAGRFFMY	3.06 ± 0.068
YSDWELVSGVQLA	inactive
YSFMKP	inactive
YSFRCVSTSVNGNRVMAAVS	inactive
YSFRNSIDAFRLEYKKRYRF	-0.403 ± 0.93
YSGSCNFVQVSVFKHWSGVY	inactive
YSGSNCLSSDEYWWRDDSLT	inactive
